Data: doi:10.1101/713511

Experiments:
[1] = biological target: T1, YDL085C-A (S. cerevisiae, UniProt Q3E7B7 1-68); test: fluorescence anisotropy
T1 sequence: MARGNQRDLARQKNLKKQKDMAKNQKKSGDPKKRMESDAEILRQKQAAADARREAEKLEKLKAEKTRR

[2] = biological target: T2, SERF1a (human, UniProt O75920-2 1-62); test: fluorescence anisotropy
T2 sequence: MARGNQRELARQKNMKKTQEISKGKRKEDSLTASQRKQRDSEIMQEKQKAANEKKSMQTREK

[3] = biological target: T2, SERF1a; test: ITC
[4] = biological target: T3, Atto550-SERF1a (human, UniProt O75920-2 1-62); test: fluorescence anisotropy
T3 sequence: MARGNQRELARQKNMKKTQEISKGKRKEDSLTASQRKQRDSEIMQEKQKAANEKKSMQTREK

[5] = biological target: T3, Atto550-SERF1a; test: fluorescence anisotropy; remark: listed apart in the source

ACUGCUAGAGAUUUUCCACAU (ssRNA) [Cy3-R21(-)]
Kd [1]: 2.35 ± 0.56 µM | Kd [2]: 4.81 ± 0.48 µM

ACUGCUAGAGAUUUUCCACAU (ssRNA) [R21(-) / 21R(-)]
Kd [3]: 5.99 ± 2.32 µM | Kd [4]: 4.39 ± 1.59 µM

B1: dsDNA 21mer (dsDNA)
DNA 1: ATGTGGAAAATCTCTAGCAGT
DNA 2: ACTGCTAGAGATTTTCCACAT
binding result [5]: no binding
